# Source: patent US20220010021A1 (Sanofi, published 2022)
# T1: human beta-Klotho (KLB) (human, UniProt Q86Z14 53-997)
# T1 construct: bought protein; also called human KLB
# T1 sequence (looked up): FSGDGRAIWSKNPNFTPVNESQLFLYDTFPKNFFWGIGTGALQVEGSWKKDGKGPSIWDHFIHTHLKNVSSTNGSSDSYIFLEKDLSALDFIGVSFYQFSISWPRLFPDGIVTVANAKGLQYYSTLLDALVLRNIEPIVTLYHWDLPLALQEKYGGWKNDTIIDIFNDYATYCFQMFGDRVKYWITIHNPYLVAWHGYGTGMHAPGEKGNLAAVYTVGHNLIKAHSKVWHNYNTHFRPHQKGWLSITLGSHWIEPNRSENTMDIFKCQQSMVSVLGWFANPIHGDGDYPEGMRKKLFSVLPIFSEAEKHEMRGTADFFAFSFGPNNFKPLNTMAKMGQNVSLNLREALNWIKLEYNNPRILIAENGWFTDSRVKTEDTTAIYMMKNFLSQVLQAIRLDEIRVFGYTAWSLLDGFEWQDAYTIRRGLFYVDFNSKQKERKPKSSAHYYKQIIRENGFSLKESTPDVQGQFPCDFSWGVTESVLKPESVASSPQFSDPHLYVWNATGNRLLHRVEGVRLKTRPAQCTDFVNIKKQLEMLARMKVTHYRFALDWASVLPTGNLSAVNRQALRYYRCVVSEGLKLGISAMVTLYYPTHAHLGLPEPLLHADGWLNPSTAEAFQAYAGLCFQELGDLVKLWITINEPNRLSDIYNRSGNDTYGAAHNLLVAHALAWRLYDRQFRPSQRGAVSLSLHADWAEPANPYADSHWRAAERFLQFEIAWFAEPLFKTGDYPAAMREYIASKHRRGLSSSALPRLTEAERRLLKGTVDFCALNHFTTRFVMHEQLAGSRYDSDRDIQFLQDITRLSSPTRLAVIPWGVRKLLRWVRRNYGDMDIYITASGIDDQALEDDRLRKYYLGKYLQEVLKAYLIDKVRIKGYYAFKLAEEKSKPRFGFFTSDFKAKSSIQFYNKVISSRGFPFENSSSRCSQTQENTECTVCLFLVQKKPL
# Assays:
# human beta-Klotho (KLB) = molecular target: T1, human beta-Klotho (KLB); experiment: SPR;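 also: Anti-KLB antibodies captured on anti-human Fc CM5 chip, KLB injected as analyte, 180 s association and 1800 s dissociation, fitted to 1:1 binding model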
# [1] = molecular target: human FGFR1c + KLB receptor complex on HEK293 iLite FGF21 reporter cells (human, UniProt P11362 22-822; Q86Z14 1-1044); experiment: cell-based or functional assay
# human FGFR1c + KLB receptor complex on HEK293 iLite FGF21 reporter cells, sequence (P11362 22-822, chain 1 of 2): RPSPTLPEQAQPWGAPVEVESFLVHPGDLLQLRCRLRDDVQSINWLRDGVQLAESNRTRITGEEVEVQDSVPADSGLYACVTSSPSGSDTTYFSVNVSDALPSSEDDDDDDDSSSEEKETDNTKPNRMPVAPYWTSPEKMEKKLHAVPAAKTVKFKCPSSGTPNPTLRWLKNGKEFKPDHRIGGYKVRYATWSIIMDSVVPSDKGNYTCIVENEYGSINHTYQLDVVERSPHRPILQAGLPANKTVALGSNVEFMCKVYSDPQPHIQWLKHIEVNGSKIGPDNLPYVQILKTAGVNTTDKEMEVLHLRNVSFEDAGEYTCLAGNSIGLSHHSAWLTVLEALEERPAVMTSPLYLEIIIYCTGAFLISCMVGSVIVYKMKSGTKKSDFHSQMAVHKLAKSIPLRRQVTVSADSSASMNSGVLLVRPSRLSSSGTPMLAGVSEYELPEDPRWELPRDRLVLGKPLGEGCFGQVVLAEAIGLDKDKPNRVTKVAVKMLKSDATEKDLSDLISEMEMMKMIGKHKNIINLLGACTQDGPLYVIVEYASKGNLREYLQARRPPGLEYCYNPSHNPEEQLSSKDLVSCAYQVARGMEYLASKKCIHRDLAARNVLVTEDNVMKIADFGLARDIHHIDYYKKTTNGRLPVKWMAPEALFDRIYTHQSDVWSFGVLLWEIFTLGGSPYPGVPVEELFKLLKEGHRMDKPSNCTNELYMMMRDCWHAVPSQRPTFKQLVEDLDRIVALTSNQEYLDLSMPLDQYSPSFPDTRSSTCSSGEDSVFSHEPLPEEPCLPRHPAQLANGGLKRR
# human FGFR1c + KLB receptor complex on HEK293 iLite FGF21 reporter cells, sequence (Q86Z14 whole entry, chain 2 of 2): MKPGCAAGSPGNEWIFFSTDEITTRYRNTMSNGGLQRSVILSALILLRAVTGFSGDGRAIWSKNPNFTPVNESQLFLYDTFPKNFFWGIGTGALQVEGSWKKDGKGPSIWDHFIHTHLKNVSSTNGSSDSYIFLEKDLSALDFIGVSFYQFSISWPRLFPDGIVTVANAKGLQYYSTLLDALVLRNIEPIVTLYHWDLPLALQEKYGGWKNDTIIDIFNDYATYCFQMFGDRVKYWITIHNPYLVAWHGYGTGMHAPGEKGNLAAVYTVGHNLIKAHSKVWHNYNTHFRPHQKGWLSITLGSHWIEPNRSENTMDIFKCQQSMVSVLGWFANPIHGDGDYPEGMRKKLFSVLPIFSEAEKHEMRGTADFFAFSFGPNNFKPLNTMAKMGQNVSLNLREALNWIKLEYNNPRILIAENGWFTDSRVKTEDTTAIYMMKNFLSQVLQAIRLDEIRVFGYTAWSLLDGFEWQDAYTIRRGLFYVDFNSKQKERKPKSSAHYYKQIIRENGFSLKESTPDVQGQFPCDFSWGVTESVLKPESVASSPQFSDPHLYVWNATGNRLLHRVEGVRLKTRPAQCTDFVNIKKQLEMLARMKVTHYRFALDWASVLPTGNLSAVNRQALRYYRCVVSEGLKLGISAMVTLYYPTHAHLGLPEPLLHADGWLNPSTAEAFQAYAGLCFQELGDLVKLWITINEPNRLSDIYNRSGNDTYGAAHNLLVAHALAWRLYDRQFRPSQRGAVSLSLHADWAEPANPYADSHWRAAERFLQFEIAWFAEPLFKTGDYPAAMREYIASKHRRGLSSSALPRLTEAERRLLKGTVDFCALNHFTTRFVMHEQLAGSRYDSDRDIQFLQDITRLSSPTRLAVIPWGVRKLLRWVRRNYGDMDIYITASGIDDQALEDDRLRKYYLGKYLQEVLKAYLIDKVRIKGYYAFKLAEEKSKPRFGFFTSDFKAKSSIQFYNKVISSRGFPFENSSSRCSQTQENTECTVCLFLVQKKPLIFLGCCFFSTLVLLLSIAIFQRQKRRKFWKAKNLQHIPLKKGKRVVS
Binder,koff (human beta-Klotho (KLB)) [s⁻¹],EC50 [1] [nM],Emax [1] [%]
"Ab0332 (antibody, IgG4, V domains shown, IgG4 PE) VH: QVTLKESGPVLVKPTETLTLTCTVSGFSLNNARVGVSWIRQPPGKALEWLAHIFSNDEKSYSTSLKSRLTISKDTSKSQVVLTMTNMDPVDTATYYCARSVVTGGYYYEGMDVWGQGTTVTVSS VL: SYVLTQPPSVSVAPGQTARITCGGSNIGSESVHWYQQKPGQAPVLVVYSESDRPSGIPERFSGSNSGNTATLTISRVEAGDEADYYCQVWEGASDHVVFGGGTKLTVLG",0.00143,0.05,995
"Ab0358 (antibody, IgG4, V domains shown, IgG4 PE) VH: QVTLKESGPVLVKPTETLTLTCTVSGFSLNNARVGVSWIRQPPGKALEWLAHIFSNDEKSYSTSLKSRLTISKDTSKSQVVLTMTNMDPVDTATYYCARSVVTGGYYYEGMDVWGQGTTVTVSS VL: SYVLTQPPSVSVAPGQTARITCGGSNIGSESVHWYQQKPGQAPVLVVYEASDRPSGIPERFSGSNSGNTATLTISRVEAGDEADYYCQVWHGSSDHVVFGGGTKLTVLG",0.000454,0.07,858
"Ab0345 (antibody, IgG4, V domains shown, IgG4 PE) VH: QVTLKESGPVLVKPTETLTLTCTVSGFSLNNARVGVSWIRQPPGKALEWLAHIFSNDEKSYSTSLKSRLTISKDTSKSQVVLTMTNMDPVDTATYYCARSVVTGGYYYEGMDVWGQGTTVTVSS VL: SYVLTQPPSVSVAPGQTARITCGGSNIGSESVHWYQQKPGQAPVLVVYAASDRPSGIPERFSGSNSGNTATLTISRVEAGDEADYYCQVWEGASDHVVFGGGTKLTVLG",0.00188,0.07,908
"Ab0338 (antibody, IgG4, V domains shown, IgG4 PE) VH: QVTLKESGPVLVKPTETLTLTCTVSGFSLNNARVGVSWIRQPPGKALEWLAHIFSNDEKSYSTSLKSRLTISKDTSKSQVVLTMTNMDPVDTATYYCARSVVTGGYYYEGMDVWGQGTTVTVSS VL: SYVLTQPPSVSVAPGQTARITCGGSNIGSESVHWYQQKPGQAPVLVVYSSSDRPSGIPERFSGSNSGNTATLTISRVEAGDEADYYCQVWAGSSDHVVFGGGTKLTVLG",0.000429,0.06,971
"Ab0340 (antibody, IgG4, V domains shown, IgG4 PE) VH: QVTLKESGPVLVKPTETLTLTCTVSGFSLNNARVGVSWIRQPPGKALEWLAHIFSNDEKSYSTSLKSRLTISKDTSKSQVVLTMTNMDPVDTATYYCARSVVTGGYYYEGMDVWGQGTTVTVSS VL: SYVLTQPPSVSVAPGQTARITCGGSNIGSESVHWYQQKPGQAPVLVVYAESDRPSGIPERFSGSNSGNTATLTISRVEAGDEADYYCQVWEGSSDHVVFGGGTKLTVLG",0.00176,0.05,912
"Ab0354 (antibody, IgG4, V domains shown, IgG4 PE) VH: QVTLKESGPVLVKPTETLTLTCTVSGFSLNNARVGVSWIRQPPGKALEWLAHIFSNDEKSYSTSLKSRLTISKDTSKSQVVLTMTNMDPVDTATYYCARSVVTGGYYYEGMDVWGQGTTVTVSS VL: SYVLTQPPSVSVAPGQTARITCGGSNIGSESVHWYQQKPGQAPVLVVYEESDRPSGIPERFSGSNSGNTATLTISRVEAGDEADYYCQVWHGSSDHVVFGGGTKLTVLG",0.00158,0.07,878
"Ab0337 (antibody, IgG4, V domains shown, IgG4 PE) VH: QVTLKESGPVLVKPTETLTLTCTVSGFSLNNARVGVSWIRQPPGKALEWLAHIFSNDEKSYSTSLKSRLTISKDTSKSQVVLTMTNMDPVDTATYYCARSVVTGGYYYEGMDVWGQGTTVTVSS VL: SYVLTQPPSVSVAPGQTARITCGGSNIGSESVHWYQQKPGQAPVLVVYSHSDRPSGIPERFSGSNSGNTATLTISRVEAGDEADYYCQVWEGESDHVVFGGGTKLTVLG",0.00053,0.06,1030
"Ab0360 (antibody, IgG4, V domains shown, IgG4 PE) VH: QVTLKESGPVLVKPTETLTLTCTVSGFSLNNARVGVSWIRQPPGKALEWLAHIFSNDEKSYSTSLKSRLTISKDTSKSQVVLTMTNMDPVDTATYYCARSVVTGGYYYEGMDVWGQGTTVTVSS VL: SYVLTQPPSVSVAPGQTARITCGGSNIGSESVHWYQQKPGQAPVLVVYEHSDRPSGIPERFSGSNSGNTATLTISRVEAGDEADYYCQVWEGSSDHVVFGGGTKLTVLG",0.00192,0.08,845
"Ab0333 (antibody, IgG4, V domains shown, IgG4 PE) VH: QVTLKESGPVLVKPTETLTLTCTVSGFSLNNARVGVSWIRQPPGKALEWLAHIFSNDEKSYSTSLKSRLTISKDTSKSQVVLTMTNMDPVDTATYYCARSVVTGGYYYEGMDVWGQGTTVTVSS VL: SYVLTQPPSVSVAPGQTARITCGGSNIGSESVHWYQQKPGQAPVLVVYSYSDRPSGIPERFSGSNSGNTATLTISRVEAGDEADYYCQVWAGSSDHVVFGGGTKLTVLG",0.000251,0.2,769
"Ab0357 (antibody, IgG4, V domains shown, IgG4 PE) VH: QVTLKESGPVLVKPTETLTLTCTVSGFSLNNARVGVSWIRQPPGKALEWLAHIFSNDEKSYSTSLKSRLTISKDTSKSQVVLTMTNMDPVDTATYYCARSVVTGGYYYEGMDVWGQGTTVTVSS VL: SYVLTQPPSVSVAPGQTARITCGGSNIGSESVHWYQQKPGQAPVLVVYEASDRPSGIPERFSGSNSGNTATLTISRVEAGDEADYYCQVWEGSSDHVVFGGGTKLTVLG",0.00185,0.08,893
"Ab0353 (antibody, IgG4, V domains shown, IgG4 PE) VH: QVTLKESGPVLVKPTETLTLTCTVSGFSLNNARVGVSWIRQPPGKALEWLAHIFSNDEKSYSTSLKSRLTISKDTSKSQVVLTMTNMDPVDTATYYCARSVVTGGYYYEGMDVWGQGTTVTVSS VL: SYVLTQPPSVSVAPGQTARITCGGSNIGSESVHWYQQKPGQAPVLVVYEESDRPSGIPERFSGSNSGNTATLTISRVEAGDEADYYCQVWEGASDHVVFGGGTKLTVLG",0.00038,0.08,895
"Ab0352 (antibody, IgG4, V domains shown, IgG4 PE) VH: QVTLKESGPVLVKPTETLTLTCTVSGFSLNNARVGVSWIRQPPGKALEWLAHIFSNDEKSYSTSLKSRLTISKDTSKSQVVLTMTNMDPVDTATYYCARSVVTGGYYYEGMDVWGQGTTVTVSS VL: SYVLTQPPSVSVAPGQTARITCGGSNIGSESVHWYQQKPGQAPVLVVYEESDRPSGIPERFSGSNSGNTATLTISRVEAGDEADYYCQVWEGSSDHVVFGGGTKLTVLG",0.000419,0.07,1010
"Ab0344 (antibody, IgG4, V domains shown, IgG4 PE) VH: QVTLKESGPVLVKPTETLTLTCTVSGFSLNNARVGVSWIRQPPGKALEWLAHIFSNDEKSYSTSLKSRLTISKDTSKSQVVLTMTNMDPVDTATYYCARSVVTGGYYYEGMDVWGQGTTVTVSS VL: SYVLTQPPSVSVAPGQTARITCGGSNIGSESVHWYQQKPGQAPVLVVYAASDRPSGIPERFSGSNSGNTATLTISRVEAGDEADYYCQVWEGSSDHVVFGGGTKLTVLG",0.00168,0.07,958
"Ab0355 (antibody, IgG4, V domains shown, IgG4 PE) VH: QVTLKESGPVLVKPTETLTLTCTVSGFSLNNARVGVSWIRQPPGKALEWLAHIFSNDEKSYSTSLKSRLTISKDTSKSQVVLTMTNMDPVDTATYYCARSVVTGGYYYEGMDVWGQGTTVTVSS VL: SYVLTQPPSVSVAPGQTARITCGGSNIGSESVHWYQQKPGQAPVLVVYEYSDRPSGIPERFSGSNSGNTATLTISRVEAGDEADYYCQVWEGSSDHVVFGGGTKLTVLG",0.00195,0.07,829
